The numbers were not newly measured in paper PMC12720343, which cites them from elsewhere.

In general, Kd refers to the constant that tells how readily two partners part at equilibrium.

The series concerns the target SpoIIQ extracytoplasmic fragment (Bacillus subtilis) (UniProt P71044).
Sequence of UniProt P71044 (P71044 43-283): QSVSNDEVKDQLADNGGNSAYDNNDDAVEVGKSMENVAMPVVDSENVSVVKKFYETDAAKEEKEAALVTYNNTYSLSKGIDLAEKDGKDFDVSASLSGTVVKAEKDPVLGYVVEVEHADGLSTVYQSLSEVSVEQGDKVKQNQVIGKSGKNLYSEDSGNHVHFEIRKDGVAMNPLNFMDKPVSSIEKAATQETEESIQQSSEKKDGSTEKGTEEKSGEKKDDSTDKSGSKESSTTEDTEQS

“SpoIIIAH extracytoplasmic fragment (from UniProt P49785)”: the dissociation constant Kd was 1000 nM.
